Results on three substances are retold here after patent publication US20220372463A1.

In this assay the target is Streptococcus pyogenes Cas9 endonuclease (Streptococcus pyogenes) (UniProt Q99ZW2). The experiment in a line: cell-based or functional assay.

As for “wild-type AcrIIA4 as the auto-inhibitory domain of CascAID wt (Cas9 fused to wild-type AcrIIA4)”, the kact (constant activation parameter for all CascAID variants; best fit of the ODE model to editing data) worked out at 1.13 h⁻¹ and the kinh, CascAID (inhibition parameter for CascAID wt; best fit of the ODE model to editing data; marked not identifiable) was 618 h⁻¹.
With “AcrIIA4 D14A/G38A as the auto-inhibitory domain of CascAID D14A/G38A”, the fold decrease of the transition rate to the inhibited state relative to CascAID with wild-type AcrIIA4 amounted to 19 fold, the kact (constant activation parameter for all CascAID variants; best fit of the ODE model to editing data) was determined as 1.13 h⁻¹ and the γ4 (inhibitor strength: fold-change relative to the inhibition rate of CascAID wt; best fit of the ODE model) worked out at 0.0519 unitless.
On to “AcrIIA4 N39A as the auto-inhibitory domain of CascAID N39A”, for which the fold decrease of the transition rate to the inhibited state relative to CascAID with wild-type AcrIIA4 was 16 fold, the kact (constant activation parameter for all CascAID variants; best fit of the ODE model to editing data) was determined as 1.13 h⁻¹ and the γ3 (inhibitor strength: fold-change relative to the inhibition rate of CascAID wt; best fit of the ODE model) is 0.0609 unitless.
